Experimental data from PMC4324299, “Characterization of interactions between inclusion membrane proteins from Chlamydia trachomatis” (Frontiers in Cellular and Infection Microbiology, 2015).

B1: Ct222 (natural protein)
chain: MRCCCVRTNYEEVRSSSTGDQVVSAVKERKCDSSLCRKIASVAFTLIGALLLGIGMVLSFALLGSSAGLIGVGVILSALGAVCLSLGLCKLFLRMKRVSLDKAEQKMLEDQVELLRQENQELKALVYSN
notes: Ct222, putative inclusion membrane protein of C. trachomatis; also called Ct222 FL; source: bacterial two-hybrid (BACTH) fusion, co-expressed in E. coli DHT1; not shown: T25 (as bait) or T18 (as prey) fragment of B. pertussis adenylate cyclase, N-terminal, kept
B2: Ct850 (natural protein)
chain: MGFGTVRGKGKAVKSFFLRPLQNLEVGLFSLPIVLLLGEIGCVSSISSVSLVAVLSIVGVFVALVSFFRSWGYGLSVVGAIFFGLALCNNFPVSVFWGGLLTVSFIISYGILLLSVSLVEGHIKEKAVSLSELTASHNSLQDSYNREVQERKEKELLAQSKITALEQELSVSHEQLQEVSRKYTHASEDLQILIDQRDSWLKDYMTLHQEYVRVVAGDEENVIFPWKVFQGNSEKDSGYQQRVQDAEHKIAHLEKLCEEENSGKRYAEECLDKALADLLESTRLREILEKEIFQKDEEIASLKQEIAAEKLLSSSVSDDRAAYKGKYLQLREQFTVKDSFLKKARRERFLAQEQLLVLKRAKEEEASNLSTTDSFSIIQNLLLQIEALEEEVTYLEELVLHNQNR
notes: Ct850, putative inclusion membrane protein of C. trachomatis; source: bacterial two-hybrid (BACTH) fusion, co-expressed in E. coli DHT1; not shown: T25 (as bait) or T18 (as prey) fragment of B. pertussis adenylate cyclase, N-terminal, kept

Tests used:
Assay in all cases: two-hybrid
[1] = target: B2; conditions: partners not purified
[2] = target: the molecule itself
[3] = target: B1; conditions: partners not purified

Row | Binder | β-galactosidase activity [1] | β-galactosidase activity [2] | β-galactosidase activity [3]
1 | B1 | 92 relative units (RU) | 317 relative units (RU) | 
2 | B2 |  |  | 151 relative units (RU)
